In the RNAGym collection of RNA variant scans (doi:10.1073/pnas.2313332121):
Variants at the floor of the assay were thinned out.

B1: TPR 5TU (parent)
chain: GGAUCUUCUCGAUCUAACAAAAAAGACAAAUCUGCCACAAAGCUUGAGAGCAUCUUCGGAUGCAGAGGCGGCAGCCUUCGGUGGCGCGAUAGCGCCAACGUUCUCAACUAUGACACGCAAAACGCGUGCUCCGUUGAAUGGAGUUUAUCAUG

Variants of: B1
Assay: polymerase ribozyme fitness, log enrichment relative to wild type (log ratio); higher = more active; in vitro selection for triplet polymerase activity
Summary of the method: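 Mutant libraries of each subunit of a heterodimeric triplet polymerase ribozyme were built by PCR and transcribed. Each library went through one round of in vitro selection in triplicate: annealing with biotinylated primer, partner subunit and triplets, frozen incubation at −7 °C, gel excision of extended constructs, streptavidin-bead capture and RT-PCR. Input and output libraries were Illumina-sequenced; only genotypes with ≥10 input reads and ≥1 read per output were kept. Fitness is log2(genotype enrichment/wild-type enrichment), using inverse-variance-weighted replicate averages.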

Variant | polymerase ribozyme fitness (log ratio)
GGAUCUUCUCGAUCUAACAAAAAAGACAAAUCUGCCACAAAGCUUGAGAGCAUCGUCGGAUGCAGAGGCGGCUGCCUUCGGUGGCGCGAUAGCGCCAACGUUCUCAACUAUGACACGCAAAACGCGUGCUCCGUUGAAUGGAGUUUAUCAUG [U55G A73U] | -2.35
GGAUCUUCUCGAUCUAACAAAAAAGACAAAUCUGCCACAAAGCUUGAGAGCAUCGUCGGAUGCAGAGGCGGCAGCCUUCGGUGGCGCGAUAGCGCCGACGUUCUCAACUAUGACACGCAAAACGCGUGCUCCGUUGAAUGGAGUUUAUCAUG [U55G A97G] | 0.0201
GGAUCUUCUCGAUCUAACAAAAAAGACAAAUCUGCCACAAAGCUUGAGAGCAUCCUCGGAUGCAGAGGCGGCAGCCUUCGGUCGCGCGAUAGCGCCAACGUUCUCAACUAUGACCCGCAAAACGCGUGCUCUGUUGAAUGGAGUUUAUCAUG [U55C G83C A115C C132U] | -2.06
GGAUCUUCUCGAUCUAACAAAAAAGACAAAUCUGCCACAAAGCUUGAGAGCAUCAUCGGAUGCAGAGGCGGCAGCCUUCGGUGGCGCGAUAGCGCCAACGUUCUCAACUAUGACACGCAAAACGCGUGCUCCGUUGAAUGGAGUCUAUCAUG [U55A U145C] | 0.505
GGAUCUUCUCGAUCUAACAAAAAAGACAAAUCUGCCACAAAGCUUGAGAGCAUCGUCGGAUGUAGAGGCGGCAGCCUUCGUUGGCGGGAUAGCGCCAACGUGCUCAACUAUGACAGGCAAAACGCGUGCUCCGUUGAAUGGAGUUUAUCCUG [U55G C63U G81U C87G U102G C116G A150C] | ≤ -4.2
GGAUCUUCUCGAUCUAACAAAAAAGACAAAUCUGCCACAAAGCUUGAGAGCAUCCUCGGAUGCAGAGGCGGCACCCUUCGGUGGCGCGAUAGCGCCAACGUUCUCAACUAUGACACGCAAAACGCGUGCUCCGUUGAAUGGAGUUUAUCAUG [U55C G74C] | -3.64
GGAUCUUCUCGAUCUAACAAAAAAGACAAAUCUGCCACAAAGCUUGAGAGCAUCCUCGGAUGCAGAGGCGGCAGCCUUCGGUGGGGCGAUAGCGCCAACGUUCUCAACUAUGACACGCAAAACGCGUGCUCCGUUGAAUGGAGUUUAUCAUG [U55C C85G] | -1.66
GGAUCUUCUCGAUCUAACAAAAAAGACAAAUCUGCCACAAAGCUUGAGAGCAUCCUCGGAUGCAGAGGCGGCAGCCUUCGGUGGAGCGAUAGCGCCAACGUUCUCAACUAUGACACGCAAAACGCGUGCUCCGUUGAAUGGAGUUUAUCAUG [U55C C85A] | -1.24
GGAUCUUCUCGAUCUAACAAAAAAGACAAAUCUGCCACAAAGCUUGAGAGCAUCCUCGGAUGCAGAGGCGGCAGCCUUCGGUGGUGCGAUAGCGCCAACGUUCUCAACUAUGACACGCAAAACGCGUGCUCCGUUCAAUGGAGUUUAUCAUG [U55C C85U G136C] | -3.51
GGAUCUUCUCGAUCUAACAAAAAAGACAAAUCUGCCACAAAGCUUGAGAGCAUCGUCGGAUGCAGAGGCGGCAGCCUUCGGUGGCGCGGUAGCGCCAACGUUCUCAACUAUGACACGCAAAACCCGUGCUCCGUUGAAUGGAGUUCAUCAUG [U55G A89G G124C U146C] | -1.44
GGAUCUUCUCGAUCUAACAAAAAAGACAAAUCUGCCACAAAGCUUGAGAGCAUCCUCUGAUGCAGAGGCGGCAGCCUUCGGUGGCGCGAUAGCGCCAACGUUCUCAACUAUGACACGCAAAACACGUGCUCCGUUGAAUGGAGUUUAUCAUG [U55C G58U G124A] | -0.624
GGAUCUUCUCGAUCUAACAAAAAAGACAAAUCUGCCACAAAGCUUGAGAGCAUCGUGGGAUGCAGAGGCGGCAGCCUUCGGUGGCGCGAUAGCGUAAACGUUCUCAACUAUGACACGGAAAACGCGUGCUCCGUUGAAUGGAGUUUAUCAUG [U55G C57G C95U C96A C118G] | -2.53
GGAUCUUCUCGAUCUAACAAAAAAGACAAAUCUGCCACAAAGCUUGAGAGCAUCGUCGGGUGCAGAGGCGGCAGCCUUUGGUGGCGCGAUAGCGCCAACGUUCUCAACUAUGACACGCCAAACGCGUGCUCCGUUGAAUGGAGUUUAUCAUG [U55G A60G C79U A119C] | -2.12
GGAUCUUCUCGAUCUAACAAAAAAGACAAAUCUGCCACAAAGCUUGAGAGCAUCGUCGGGUGCAGAGGCGGCAGCCUUCGGUGGCGCGAUAGCGCCAACGUUCUCAACUAUGACACGCAAAACGCGUGCUCCGUUGAAUGGAGUUUAUCAUG [U55G A60G] | 0.467
GGAUCUUCUCGAUCUAACAAAAAAGACAAAUCUGCCACAAAGCUUGAGAGCAUCCUCGGAUGCAGAGGCGGCAGCCUUCGGUGGCGCGAUAGCGCCAACGUUCUCAACGAUGACACGCAAAACGCGUGCUCCGUUGAAUGGAGUUUAUCAUG [U55C U109G] | -0.246
GGAUCUUCUCGAUCUAACAAAAAAGACAAAUCUGCCACAAAGCUUGAGAGCAUCCACGGAUGCAGAGGCGGCAGCCUUCGGUGGCGCGAUAGCGCCAUCGUUCUCAACUAUGACACGCAAAACGCGUGCUCCGUUGAAUGGAGUAUAUCAUG [U55C U56A A98U U145A] | -1.11
GGAUCUUCUCGAUCUAACAAAAAAGACAAAUCUGCCACAAAGCUUGAGAGCAUCGUCGGAUGCAGAGGCGGCAGCCUUCGGUGGCGCGAUAGCGCCAACGUUCUCAACUGUGACACGCAAAACGCGUGCUCCGUUGAAUGGAGUUUAUCAUG [U55G A110G] | -2.87
GGAUCUUCUCGAUCUAACAAAAAAGACAAAUCUGCCACAAAGCUUGAGAGCAUCGUCGGAUGCAGAGGCGGCAGCCUUCGGUGGCGCGAUAGCGCCAACGUUCUCCACUAUGACACGCAAAACGCGUGCUCCGUUGAAUGGAGUUUAUCAUG [U55G A106C] | -0.416
GGAUCUUCUCGAUCUAACAAAAAAGACAAAUCUGCCACAAAGCUUGAGAGCAUCAUCGGAUGCAGAGGCGGCAGCCUUCGGUGGCGCGAUAGCGCCAACGUUCUCAACUAUGACACGCAAAACGCGUGCUCCGUUGAAUGGAGAUUAUCAUG [U55A U144A] | -0.497

Variant | polymerase ribozyme fitness (log ratio)
GGAUCUUCUCGAUCUAACAAAAAAGACAAAUCUGCCACAAAGCUUGAGAGCAUCAUCGGAUGCAGAGGCGGCAGCCUUCGGUGGCGCGAUAGCGCCAACGUUCUCAACUAUGACACGCAAAACGCGUGCUCCGUUGAAUGGAGCUUAUCAUG [U55A U144C] | 0.176
GGAUCUUCUCGAUCUAACAAAAAAGACAAAUCUGCCACAAAGCUUGAGAGCAUCAUCGGAUGCAGAGGCGGCAGCCUUCGGUGGCGCGAUAGCGCCAACGUUCUCAACUAUGACACGCAAAACGCGUGCUCCGUUGAAUGGAGGUUAUCAUG [U55A U144G] | 0.364
GGAUCUUCUCGAUCUAACAAAAAAGACAAAUCUGCCACAAAGCUUGAGAGCAUCGUUGGAUGGAGUGGCGGCAGCCUUCGGUGGCGCGAUAGCCCCAACGUUCGCAACUAUGACACGCAAAACGCGUGCUCCGUUGAAUGGAGUUUAUCAUG [U55G C57U C63G A66U G94C U104G] | ≤ -4.2
GGAUCUUCUCGAUCUAACAAAAAAGACAAAUCUGCCACAAAGCUUGAGAGCAUCGUCGGAUGCAGAGGCGGCCGCCUUCGGUGGCGAGAUAGCGCCAACGUUCUCAACUAUGACACGCAAAACGCGUGCUCCGUUGAAUGGAGUUUAUCAUG [U55G A73C C87A] | ≤ -4.2
GGAUCUUCUCGAUCUAACAAAAAAGACAAAUCUGCCACAAAGCUUGAGAGCAUCGUCGGGUGCAGAGGUGGCAGCCUUCGGUGGCGCGAUGGCGCCAACGUUCUCAACUAUGACACGCAAAACGCGUGCUCCGUUGAAUGGAGAUUAUCAUG [U55G A60G C69U A91G U144A] | -2.3
GGAUCUUCUCGAUCUAACAAAAAAGACAAAUCUGCCACAAAGCUUGAGAGCAUCGUCGGUUGCAGAGGCGGCAGCCUUCGGUCGCGCGAUAGCGCCAACGUUCUCAACUAUGACACGCAAAACGCGUGCUCCGUUGUAUGUAGUUUAUCAUG [U55G A60U G83C A137U G141U] | ≤ -4.2
GGAUCUUCUCGAUCUAACAAAAAAGACAAAUCUGCCACAAAGCUUGAGAGCAUCGUGGGAUGCAGAGGCGGCAGCCUUCGGUGGCGCGAUAGCGCCAACGGUCUCAACUAUGACACGCAAAACGCGUGCUCCGUUGAAUGGAGUUUAUCAUG [U55G C57G U101G] | 0.189
GGAUCUUCUCGAUCUAACAAAAAAGACAAAUCUGCCACAAAGCUUGAGAGCAUCGUCGGAUGCAGAGGCGGCAGCCUUCGGUGGCGCGAUAGCGCCAUCGUUCUCAACUAUGACACGCAAAACGCGUGCUCCGUUGAAUGGAGGUUAUCAUG [U55G A98U U144G] | 0.317
GGAUCUUCUCGAUCUAACAAAAAAGACAAAUCUGCCACAAAGCUUGAGAGCAUCGUCGGAUGCAGAGGCGGCAGCCUUCGGUGGCGCGAUAGCGCCAACGUUCUCAUCUAUGACACGCAAAUCGCGUGCUCCGUUGAAUGGAGUUUAUCAUG [U55G A107U A122U] | -3.21
GGAUCUUCUCGAUCUAACAAAAAAGACAAAUCUGCCACAAAGCUUGAGAGCAUCCUCGGAUGCAGAGGCGGCUGCCUUCGGUGGCGCGAUAGCGCCUACGUUCUCAACUAUGACACGCAAAACGCGUGCUCCGUUGAAUGGAGGUUAUCAUG [U55C A73U A97U U144G] | -1.48
GGAUCUUCUCGAUCUAACAAAAAAGACAAAUCUGCCACAAAGCUUGAGAGCAUCGUAGGAUGCAGAGGUGGCAGCCUUCGGUGGCGCGAUAGCGCCAACGUUCUCAACGAUGACAAGCAAAACGCGUGCUCCGUUGAAUGGAGUUUAUCAUG [U55G C57A C69U U109G C116A] | -0.0851
GGAUCUUCUCGAUCUAACAAAAAAGACAAAUCUGCCACAAAGCUUGAGAGCAUCCUCGGAUGCAGAGGCGGCAGCCUUCGGUGGCGCGAUACCGCCAACGUUCUCAACUAUGACACGCAAAACGCGUGCUCCGUUGAAUGGAGUUUAUCAUG [U55C G92C] | -0.135
GGAUCUUCUCGAUCUAACAAAAAAGACAAAUCUGCCACAAAGCUUGAGAGCAUCGUCGGAUGCAGAGGCGGCUGCCUUCGGUGGCGCGAUAGCGCCAACGUUCUCAACUAUGACACGCAAAGCGCCUGCUCCGUUGAAUGGAGUUUAUCAUG [U55G A73U A122G G126C] | -1.69
GGAUCUUCUCGAUCUAACAAAAAAGACAAAUCUGCCACAAAGCUUGAGAGCAUCGUCGGAUGCAGAGGCGGCAGCCUUCGGUGGCGCGAUAGCGCCAACGUUCUCAACUAUGACACGCAAAACGCGUGCUCCGUUGCAUGGAGUUUAUCAUG [U55G A137C] | -3.36
GGAUCUUCUCGAUCUAACAAAAAAGACAAAUCUGCCACAAAGCUUGAGAGCAUCCUCGGAUGCAGAGGCGGCAGCCUCCGGUGGCGCGAUAGCGCCAACGUUCUCAACUAUGACACUCAAAACGCGUGCUCCGUGGAAUGGAGUUUAUCAGG [U55C U78C G117U U135G U151G] | ≤ -4.2
GGAUCUUCUCGAUCUAACAAAAAAGACAAAUCUGCCACAAAGCUUGAGAGCAUCGUGGGAUGCAGAGGCGGCAGCCUUCGGUGGCGCGAUAGCGCCGACGUUCUCCACUAUGACACGCAAAACGCGUGCUCCGUUGAAUGGAGUUUAUCAUG [U55G C57G A97G A106C] | -3
GGAUCUUCUCGAUCUAACAAAAAAGACAAAUCUGCCACAAAGCUUGAGAGCAUCCUCGGAUGCAGAGGCGGCAGGUUUCAGUGGCGGGAUAGCGCCAACGUUCUCAAUUAUGACACGCAAAACGCGUGCUCCGUUGAAUGGAGUUUAUCAUG [U55C C75G C76U G80A C87G C108U] | ≤ -4.2
GGAUCUUCUCGAUCUAACAAAAAAGACAAAUCUGCCACAAAGCUUGAGAGCAUCCUCGGAUGUAGAGGCGGCAGCCUUCGGUGGGGCGAUAGCGCCAACGUUCUCAUCUAUGACACGCAAAACGCGUGCUCCGUUGAAUGGUGUAUAUCAUG [U55C C63U C85G A107U A142U U145A] | ≤ -4.2
GGAUCUUCUCGAUCUAACAAAAAAGACAAAUCUGCCACAAAGCUUGAGAGCAUCCUCGGAUGCAGAGGCGGCAGCCUUCGGUGGUGCGAUAGCGCCUACGUUCUCAACUAUGACACGCAAAACGCGUGCUCCGUUGAAUGGAGUUUAUCAUG [U55C C85U A97U] | -1.16
